The data set in a line: Safety assessment after i.p. peptide mixture in mice. Conditions: positive control, same conditions, day 7.

The record followed here is PMC13572001, “Sequence-based artificial intelligence-guided inhibitory peptides to counteract AAV neutralizing antibodies in gene therapy” (Molecular Therapy Advances, 2026).

Protocol: To assess potential immunogenicity following peptide administration, we performed enzyme-linked immunosorbent assays (ELISA) to measure peptide-specific IgG responses.
(E) Detection of peptide-specific IgG in plasma by ELISA following peptide or control antigen administration.
Mice were injected (i.p.) with human-derived or viral-derived peptide mixtures, or OVA protein (InvivoGen #vac-pova). Plasma was collected at 24 h for cytokine analysis (BD #552364) and at day 7 for peptide- or OVA-specific antibody detection via direct ELISA.

B1: OVA: OVA protein (InvivoGen #vac-pova), positive control (protein, UniProt P01012 2-386, looked up)
Ovalbumin: GSIGAASMEFCFDVFKELKVHHANENIFYCPIAIMSALAMVYLGAKDSTRTQINKVVRFDKLPGFGDSIEAQCGTSVNVHSSLRDILNQITKPNDVYSFSLASRLYAEERYPILPEYLQCVKELYRGGLEPINFQTAADQARELINSWVESQTNGIIRNVLQPSSVDSQTAMVLVNAIVFKGLWEKAFKDEDTQAMPFRVTEQESKPVQMMYQIGLFRVASMASEKMKILELPFASGTMSMLVLLPDEVSGLEQLESIINFEKLTEWTSSNVMEERKIKVYLPRMKMEEKYNLTSVLMAMGITDVFSSSANLSGISSAESLKISQAVHAAHAEINEAGREVVGSAEAGVDAASVSEEFRADHPFLFCIKHIATNAVLFFGRCVSP
In the case of B1, the “OVA-specific antibody response (direct ELISA)” value is “robust antibody response”.
